Assay results published in paper PMC3695782.

Target: HIV-1 reverse transcriptase WT (Human immunodeficiency virus type 1) (UniProt P04585+P04585)
Experiment: EMSA
Settings: EFdA-MP at primer 3' end; Footprinting: 120 mM sodium cacodylate pH 7, 20 mM NaCl, 6 mM MgCl2, 1 uM EFdA-TP, 7 min pre-incubation with dTTP, then 1 mM ammonium iron sulfate 5 min …

## T/P-EFdA-MP (gel shift)
  binding signal (fold stronger than K65R): 1.3
